# Target: protective antigen (PA83, 83 kDa), monomeric (Bacillus anthracis)
# Experiment: SPR
# Chain of protective antigen (PA83, 83 kDa), monomeric (Bacillus anthracis) (P13423 30-764 limits assumed): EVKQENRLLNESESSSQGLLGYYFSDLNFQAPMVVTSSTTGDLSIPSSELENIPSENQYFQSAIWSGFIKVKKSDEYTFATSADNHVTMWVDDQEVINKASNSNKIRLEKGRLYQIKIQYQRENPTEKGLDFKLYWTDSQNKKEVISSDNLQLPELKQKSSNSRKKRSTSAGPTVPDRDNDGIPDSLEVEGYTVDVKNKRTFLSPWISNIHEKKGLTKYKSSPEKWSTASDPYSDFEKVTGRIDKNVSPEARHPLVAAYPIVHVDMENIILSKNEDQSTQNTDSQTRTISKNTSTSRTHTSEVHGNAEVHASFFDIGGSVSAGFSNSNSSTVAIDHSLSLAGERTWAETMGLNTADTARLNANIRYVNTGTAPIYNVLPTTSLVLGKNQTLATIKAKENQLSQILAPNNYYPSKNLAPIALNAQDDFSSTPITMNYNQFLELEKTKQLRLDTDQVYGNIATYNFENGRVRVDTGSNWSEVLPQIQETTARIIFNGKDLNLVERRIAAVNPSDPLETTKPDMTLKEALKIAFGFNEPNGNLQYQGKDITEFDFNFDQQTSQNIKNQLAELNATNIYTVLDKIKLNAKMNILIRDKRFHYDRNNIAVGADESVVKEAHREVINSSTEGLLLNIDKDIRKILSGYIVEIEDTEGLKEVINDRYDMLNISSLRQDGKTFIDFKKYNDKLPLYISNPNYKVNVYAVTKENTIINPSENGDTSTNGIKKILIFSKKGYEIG
substance,measurement,value
CMG2-R40 vWA domain (residues 40-217) (from UniProt P58335 40-217) (domain or fragment),Kd,2.43 nM
same,koff,0.000105 s⁻¹
same,kon,45300 M⁻¹ s⁻¹
